Results published in PMC2876975.

Assays:
[1] = target: c-Myc–HMPV P, in vitro translated, unlabelled (human metapneumovirus strain TN/96-12); assay: co-IP
[2] = target: c-Myc–HMPV N, in vitro translated, unlabelled (human metapneumovirus strain TN/96-12); assay: co-IP

| Substance | percent co-immunoprecipitated [1] [%] | percent co-immunoprecipitated [2] [%] |
| --- | --- | --- |
| Radiolabelled native HMPV N, in vitro translated (natural protein) | < 1 | – |
| Radiolabelled native HMPV P, in vitro translated (natural protein) | – | < 1 |
